# Test system: Escherichia coli TOP10
# Assay: shrunken log2 fold change of peptide-encoding DNA abundance (4.5 h post-induction vs induction); higher = less antimicrobial activity (less host growth inhibition)
# Conditions: time post-induction: 4.5 h; library: site-saturation at positions 5, 18, 19, 20
# 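Also: peptides expressed intracellularly from a pBAD plasmid library in pooled LB shake-flask culture, induced with 0.3% L-arabinose, DNA abundance read by NGS, three biological replicates, DESeq2 with apeglm shrinkage.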
row,Sequence,shrunken log2 fold change
1,RRIRSRPPRLPRPRPRPPFMPRP,-0.0803
2,RRIRMRPPRLPRPRPRPGIAPRP,1.11
3,RRIRPRPPRLPRPRPRPHWEPRP,-0.146
4,RRIRCRPPRLPRPRPRPGDMPRP,-0.115
5,RRIRSRPPRLPRPRPRPTWLPRP,0.455
6,RRIRVRPPRLPRPRPRPIWGPRP,0.0376
7,RRIRMRPPRLPRPRPRPEWFPRP,0.0369
8,RRIRNRPPRLPRPRPRPLRVPRP,0.896
9,RRIRIRPPRLPRPRPRPEQEPRP,0.0276
10,RRIRWRPPRLPRPRPRPSCNPRP,-0.0978
11,RRIRQRPPRLPRPRPRPGKHPRP,0.0941
12,RRIRRRPPRLPRPRPRPQTNPRP,0.257
13,RRIRIRPPRLPRPRPRPSDVPRP,-0.838
14,RRIRCRPPRLPRPRPRPLMQPRP,0.0849
15,RRIRSRPPRLPRPRPRPNGMPRP,-0.0245
16,RRIRERPPRLPRPRPRPETCPRP,-0.127
17,RRIRRRPPRLPRPRPRPEHMPRP,0.14
18,RRIRHRPPRLPRPRPRPQCGPRP,-0.333
19,RRIRLRPPRLPRPRPRPLTLPRP,0.134
20,RRIRPRPPRLPRPRPRPSQMPRP,0.185
21,RRIRMRPPRLPRPRPRPDQRPRP,-0.105
22,RRIRDRPPRLPRPRPRPMDWPRP,0.0545
23,RRIRIRPPRLPRPRPRPWNVPRP,-0.00149
24,RRIRMRPPRLPRPRPRPHFEPRP,-0.0874
25,RRIRMRPPRLPRPRPRPKAKPRP,0.0227

row,Sequence,shrunken log2 fold change
1,RRIRWRPPRLPRPRPRPVCQPRP,-0.0154
2,RRIRWRPPRLPRPRPRPDYQPRP,-0.101
3,RRIRGRPPRLPRPRPRPLAEPRP,2.89
4,RRIRDRPPRLPRPRPRPSQAPRP,0.136
5,RRIRKRPPRLPRPRPRPNLKPRP,0.286
6,RRIRKRPPRLPRPRPRPCDLPRP,0.209
7,RRIRIRPPRLPRPRPRPAGLPRP,-0.0628
8,RRIRNRPPRLPRPRPRPYGNPRP,-0.287
9,RRIRPRPPRLPRPRPRPAMIPRP,-0.26
10,RRIRDRPPRLPRPRPRPSTCPRP,-0.0465
11,RRIRSRPPRLPRPRPRPHEEPRP,0.0919
12,RRIRARPPRLPRPRPRPIYLPRP,-0.152
13,RRIRWRPPRLPRPRPRPWRMPRP,-0.182
14,RRIRTRPPRLPRPRPRPINTPRP,-0.687
15,RRIRGRPPRLPRPRPRPQIDPRP,0.565
16,RRIRIRPPRLPRPRPRPQMQPRP,-0.325
17,RRIRHRPPRLPRPRPRPNAVPRP,0.0142
18,RRIRTRPPRLPRPRPRPEVGPRP,0.0668
19,RRIRYRPPRLPRPRPRPHIPPRP,-0.452
20,RRIRIRPPRLPRPRPRPIYYPRP,-0.539
21,RRIRFRPPRLPRPRPRPHTLPRP,-0.62
22,RRIRSRPPRLPRPRPRPRMLPRP,-0.214
23,RRIRMRPPRLPRPRPRPFVKPRP,-1.03
24,RRIRHRPPRLPRPRPRPPAQPRP,0.633
25,RRIRSRPPRLPRPRPRPGQHPRP,0.178

row,Sequence,shrunken log2 fold change
1,RRIRYRPPRLPRPRPRPPIIPRP,-0.148
2,RRIRWRPPRLPRPRPRPWTHPRP,-0.11
3,RRIRKRPPRLPRPRPRPRRWPRP,0.717
4,RRIRFRPPRLPRPRPRPNEWPRP,0.0686
5,RRIRLRPPRLPRPRPRPQKPPRP,-0.272
6,RRIRWRPPRLPRPRPRPFIKPRP,-0.686
7,RRIRTRPPRLPRPRPRPIWDPRP,-0.414
8,RRIRFRPPRLPRPRPRPKLGPRP,-0.0528
9,RRIRYRPPRLPRPRPRPTIQPRP,-1.09
10,RRIRQRPPRLPRPRPRPKNVPRP,0.225
11,RRIRERPPRLPRPRPRPHWNPRP,-0.843
12,RRIRCRPPRLPRPRPRPRMPPRP,0.187
13,RRIRHRPPRLPRPRPRPLPHPRP,-0.162
14,RRIRERPPRLPRPRPRPNNCPRP,-0.24
15,RRIRLRPPRLPRPRPRPYTMPRP,-0.923
16,RRIRFRPPRLPRPRPRPVILPRP,-1
17,RRIRKRPPRLPRPRPRPCESPRP,-0.0138
18,RRIRIRPPRLPRPRPRPICLPRP,-0.197
19,RRIRVRPPRLPRPRPRPHVKPRP,-0.0504
20,RRIRSRPPRLPRPRPRPKWYPRP,-0.336
21,RRIRCRPPRLPRPRPRPHVEPRP,-0.421
22,RRIRVRPPRLPRPRPRPGPHPRP,0.121
23,RRIRFRPPRLPRPRPRPERMPRP,0.124
24,RRIRRRPPRLPRPRPRPHNDPRP,1.99
25,RRIRQRPPRLPRPRPRPITIPRP,-0.239

row,Sequence,shrunken log2 fold change
1,RRIRMRPPRLPRPRPRPKDMPRP,0.0907
2,RRIRYRPPRLPRPRPRPCVKPRP,-0.0312
3,RRIRMRPPRLPRPRPRPVVEPRP,0.719
4,RRIRQRPPRLPRPRPRPESLPRP,-0.00178
5,RRIRPRPPRLPRPRPRPEVCPRP,0.138
6,RRIRCRPPRLPRPRPRPMLEPRP,0.293
7,RRIRLRPPRLPRPRPRPDEKPRP,-0.00968
8,RRIRRRPPRLPRPRPRPNCVPRP,0.245
9,RRIRVRPPRLPRPRPRPFDNPRP,-0.359
10,RRIRWRPPRLPRPRPRPCCVPRP,-0.134
11,RRIRYRPPRLPRPRPRPQPNPRP,-0.226
12,RRIRRRPPRLPRPRPRPVIMPRP,0.189
13,RRIRYRPPRLPRPRPRPINWPRP,-0.446
14,RRIRLRPPRLPRPRPRPCGYPRP,-0.111
15,RRIRMRPPRLPRPRPRPQQLPRP,-0.0103
16,RRIRSRPPRLPRPRPRPPAGPRP,0.704
17,RRIRMRPPRLPRPRPRPGFKPRP,0.46
18,RRIRHRPPRLPRPRPRPNMNPRP,-0.424
19,RRIRHRPPRLPRPRPRPQPWPRP,0.0549
20,RRIRARPPRLPRPRPRPWIAPRP,-0.0071
21,RRIRHRPPRLPRPRPRPQKPPRP,-0.0624
22,RRIRIRPPRLPRPRPRPDQVPRP,-0.117
23,RRIRVRPPRLPRPRPRPPVLPRP,-0.201
24,RRIRDRPPRLPRPRPRPVHGPRP,1.43
25,RRIRQRPPRLPRPRPRPEFDPRP,0.00351

row,Sequence,shrunken log2 fold change
1,RRIRERPPRLPRPRPRPRQCPRP,0.123
2,RRIRPRPPRLPRPRPRPQLFPRP,0.0893
3,RRIRFRPPRLPRPRPRPGYEPRP,-0.16
4,RRIRHRPPRLPRPRPRPENHPRP,-0.235
5,RRIRWRPPRLPRPRPRPNWLPRP,0.0255
6,RRIRYRPPRLPRPRPRPGNSPRP,-0.0689
7,RRIRYRPPRLPRPRPRPKIKPRP,-0.583
8,RRIRARPPRLPRPRPRPERIPRP,0.155
9,RRIRGRPPRLPRPRPRPHNKPRP,-0.09
10,RRIRIRPPRLPRPRPRPFVEPRP,-0.37
11,RRIRWRPPRLPRPRPRPLAIPRP,0.0258
12,RRIRKRPPRLPRPRPRPCAIPRP,0.101
13,RRIRIRPPRLPRPRPRPLKWPRP,-0.535
14,RRIRLRPPRLPRPRPRPYHHPRP,-0.398
15,RRIRVRPPRLPRPRPRPFGHPRP,0.13
16,RRIRTRPPRLPRPRPRPRCQPRP,0.113
17,RRIRKRPPRLPRPRPRPKNMPRP,-0.129
18,RRIRIRPPRLPRPRPRPGLKPRP,0.0429
19,RRIRRRPPRLPRPRPRPIKKPRP,0.907
20,RRIRARPPRLPRPRPRPETRPRP,0.662
21,RRIRTRPPRLPRPRPRPYYKPRP,-0.38
22,RRIRHRPPRLPRPRPRPKLVPRP,-0.017
23,RRIRFRPPRLPRPRPRPPLPPRP,0.661
24,RRIRPRPPRLPRPRPRPYLSPRP,-0.509
25,RRIRKRPPRLPRPRPRPGKVPRP,0.248

row,Sequence,shrunken log2 fold change
1,RRIRKRPPRLPRPRPRPKKLPRP,0.16
2,RRIRYRPPRLPRPRPRPFTKPRP,-0.184
3,RRIRRRPPRLPRPRPRPTMYPRP,0.0102
4,RRIRIRPPRLPRPRPRPANMPRP,-0.45
5,RRIRCRPPRLPRPRPRPKTAPRP,0.39
6,RRIRVRPPRLPRPRPRPDGYPRP,-0.00884
7,RRIRCRPPRLPRPRPRPIYTPRP,-0.234
8,RRIRMRPPRLPRPRPRPQNYPRP,-0.377
9,RRIRGRPPRLPRPRPRPALMPRP,0.879
10,RRIRCRPPRLPRPRPRPLPTPRP,0.63
11,RRIRLRPPRLPRPRPRPDPIPRP,0.0451
12,RRIRLRPPRLPRPRPRPEPSPRP,0.787
13,RRIRYRPPRLPRPRPRPLQIPRP,-0.51
14,RRIRQRPPRLPRPRPRPHEGPRP,-0.0113
15,RRIRFRPPRLPRPRPRPEFMPRP,-0.109
16,RRIRIRPPRLPRPRPRPAIIPRP,-1.09
17,RRIRLRPPRLPRPRPRPIVAPRP,-0.0323
18,RRIRLRPPRLPRPRPRPNFIPRP,-0.228
19,RRIRVRPPRLPRPRPRPAWWPRP,0.156
20,RRIRKRPPRLPRPRPRPWVAPRP,0.282
21,RRIRFRPPRLPRPRPRPLHTPRP,-0.262
22,RRIRHRPPRLPRPRPRPAWLPRP,0.163
23,RRIRVRPPRLPRPRPRPNSSPRP,-0.0634
24,RRIRRRPPRLPRPRPRPRPQPRP,0.541
25,RRIRFRPPRLPRPRPRPWMPPRP,-0.25

# From the supplement of paper PMC9112550, “Optimization of the antimicrobial peptide Bac7 by deep mutational scanning” (BMC Biology, 2022)
